According to the supplement of paper PMC10126150:
± gives the standard deviation of the averaged measurements.

System: ATP
Test: switch fluorescence ratio, 500 uM ATP over buffer (Cy3 cluster intensity, sum of 5 cycles each) (fold (ratio)); higher = stronger signal-on switching upon ATP binding; sequences stand for … in TCGTCGGCAGCGTCAGATGTGTATAAGAGACAGTTTTTTTTTTTTTTTTTTTTTTTTT…TC
Conditions: aptamer strand: ATP DNA aptamer (quencher-CACCTGGGGGAGTATTGCGGAGGAAGG + anchor), 100 nM annealed; ATP concentration: 500 uM
Method in brief: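 Switching-strand clusters labelled with Cy3 on a modified Illumina MiSeq flow-cell were annealed to 100 nM quencher-labelled ATP aptamer, imaged in selection buffer, and re-imaged after 15 min with 500 uM ATP at 22 °C. This was done over five cycles with NaOH stripping and re-annealing in between. The fluorescence ratio is summed target-cycle over summed buffer-cycle Cy3 intensity per cluster, averaged per switch-domain sequence, excluding clusters outside 100-1000 RFU.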
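Also: ATP exposure 15 min at 22 °C before imaging.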

Sequence | switch fluorescence ratio
GCGTTCGGCA | 0.991 ± 0.026
GCGTTCTCGT | 0.989 ± 0.018
GCGTTGAGGG | 0.952 ± 0.079
GCGTTGATGT | 0.981 ± 0.017
GCGTTGGG | 1.02 ± 0.029
GCGTTGGGAG | 1.018 ± 0.0031
GCGTTGGGCT | 0.949 ± 0.016
GCGTTGGGGA | 1.02 ± 0.015
GCGTTGGGGT | 1.01 ± 0.019
GCGTTTAAAG | 0.994 ± 0.023
GCGTTTCTAG | 0.992 ± 0.028
GCGTTTGAAA | 1.01 ± 0.013
GCGTTTTAGC | 0.995 ± 0.041
GCGTTTTCGA | 1 ± 0.021
GCTAAAAAAT | 0.98 ± 0.013
GCTAAAAGGA | 0.975 ± 0.021
GCTAAAATGG | 0.9916 ± 0.0076
GCTAAATTAT | 0.963 ± 0.021
GCTAACACGG | 1.048 ± 0.0053
GCTAACTTTT | 1.03 ± 0.021
GCTAAGTATG | 1.04 ± 0.043
GCTAATAGTT | 1.01 ± 0.06
GCTAATGTGC | 1.02 ± 0.018
GCTACCTGGT | 1.02 ± 0.013
GCTACGCAGC | 3.05 ± 1.8
GCTACGGTAT | 1.13 ± 0.07

Sequence | switch fluorescence ratio
GCTAGAATAT | 1.02 ± 0.014
GCTAGAATGT | 1 ± 0.019
GCTAGAGACG | 1.06 ± 0.054
GCTAGATGGG | 1.01 ± 0.034
GCTAGCGGAC | 1.14 ± 0.025
GCTAGGGGA | 1.02 ± 0.011
GCTAGGGGGA | 1.03 ± 0.05
GCTAGTCTCA | 1.01 ± 0.028
GCTAGTTGGT | 0.99 ± 0.017
GCTAGTTGTA | 0.9995 ± 0.0074
GCTAGTTTTT | 1 ± 0.022
GCTATAAGCC | 1.05 ± 0.039
GCTATATCTA | 1.02 ± 0.022
GCTATATGTA | 1 ± 0.031
GCTATCAGCG | 0.995 ± 0.023
GCTATCTTTT | 1.02 ± 0.04
GCTATGGGCG | 1.03 ± 0.033
GCTATGTTTG | 0.9757 ± 0.0064
GCTATTAAAG | 1 ± 0.026
GCTATTATTT | 0.9845 ± 0.0027
GCTATTGTGT | 0.9858 ± 0.0036
GCTATTGTTT | 0.9633 ± 0.0082
GCTATTTTCG | 0.99 ± 0.023
GCTATTTTTT | 0.987 ± 0.022
GCTCAAATGG | 1.04 ± 0.013
GCTCAAGCGA | 1.464 ± 0.0035

Sequence | switch fluorescence ratio
GCTCAATCTT | 0.967 ± 0.01
GCTCAATTTA | 0.9689 ± 0.0083
GCTCATTGGC | 0.992 ± 0.027
GCTCCTCGCT | 1.23 ± 0.081
GCTCCTTAGG | 1.12 ± 0.048
GCTCGACGGC | 1.017 ± 0.0018
GCTCGAGGGT | 1 ± 0.03
GCTCGAGTGG | 1.03 ± 0.053
GCTCGGTTTG | 0.97 ± 0.045
GCTCGTACGA | 1.03 ± 0.027
GCTCGTTATA | 1.02 ± 0.019
GCTCGTTTAG | 1.01 ± 0.02
GCTCTACGGT | 1.013 ± 0.0099
GCTCTCCTGT | 1.02 ± 0.023
GCTGACGGGT | 0.976 ± 0.018
GCTGACTTGT | 0.977 ± 0.016
GCTGATTGTG | 1 ± 0.023
GCTGATTTCG | 1 ± 0.029
GCTGCCGGGG | 0.971 ± 0.046
GCTGCTTAGG | 0.974 ± 0.018
GCTGGAACCG | 1.08 ± 0.022
GCTGGAGGTG | 1.03 ± 0.039
GCTGGCGGAT | 1.01 ± 0.041
GCTGGCTCTT | 1.01 ± 0.014
GCTGGGACAG | 0.999 ± 0.032
GCTGGGAGAG | 0.989 ± 0.042

Sequence | switch fluorescence ratio
GCTGGGATTA | 0.984 ± 0.012
GCTGGGCACA | 0.967 ± 0.03
GCTGGGGACG | 0.938 ± 0.084
GCTGGGGGGC | 0.988 ± 0.033
GCTGGGGTAA | 1.02 ± 0.021
GCTGGGGTGC | 1 ± 0.09
GCTGGGTAAT | 1.02 ± 0.044
GCTGGGTCGA | 1.03 ± 0.01
GCTGGGTGAT | 1.018 ± 0.0069
GCTGGTAAAG | 0.972 ± 0.017
GCTGGTAAGC | 0.9696 ± 0.0029
GCTGGTTAGT | 1 ± 0.014
GCTGTAGGAG | 0.9843 ± 0.0072
GCTGTAGGCG | 0.988 ± 0.015
GCTGTATGCA | 0.976 ± 0.012
GCTGTGAGGT | 0.979 ± 0.0018
GCTGTGCGCA | 1.02 ± 0.019
GCTGTGTAGA | 1.073 ± 0.0021
GCTGTGTTGG | 1.02 ± 0.013
GCTGTTCACG | 1.01 ± 0.014
GCTGTTGGCA | 1.01 ± 0.025
GCTGTTTCAG | 0.986 ± 0.016
GCTGTTTGGG | 0.997 ± 0.014
GCTGTTTTCA | 0.984 ± 0.048
GCTTAACGCT | 0.999 ± 0.019
GCTTAACGTA | 1.05 ± 0.044

Sequence | switch fluorescence ratio
GCTTAACTTC | 0.982 ± 0.039
GCTTAAGGGG | 0.989 ± 0.029
GCTTACCCCC | 2.09 ± 0.13
GCTTACTGTA | 1.15 ± 0.024
GCTTAGGTCA | 0.982 ± 0.034
GCTTAGTATA | 1.01 ± 0.019
GCTTAGTGGT | 0.981 ± 0.025
GCTTATGTTC | 1.015 ± 0.0097
GCTTATTCGG | 0.959 ± 0.03
GCTTCAGCAA | 1.03 ± 0.055
GCTTCAGTGA | 1.02 ± 0.019
GCTTCCAGTT | 0.995 ± 0.035
GCTTCCGAGA | 1.87 ± 0.05
GCTTCGAAGG | 0.993 ± 0.031
GCTTCGGGTT | 0.976 ± 0.028
GCTTCTACTG | 0.988 ± 0.034
GCTTCTAGGT | 0.9976 ± 0.0043
GCTTGAGGAG | 1 ± 0.009
GCTTGAGTTC | 1.03 ± 0.025
GCTTGAGTTG | 1.0068 ± 0.0004
GCTTGATGTG | 0.986 ± 0.015
GCTTGCTATG | 0.976 ± 0.014
GCTTGGGAAC | 0.993 ± 0.028
GCTTGGGGGG | 1.02 ± 0.029
GCTTGGGGTG | 1.02 ± 0.024
GCTTGGGTAT | 1.02 ± 0.062

Sequence | switch fluorescence ratio
GCTTGGTTTT | 1.01 ± 0.013
GCTTGTCGGT | 1.022 ± 0.0096
GCTTGTCTTC | 1.005 ± 0.0014
GCTTGTGGAG | 1.02 ± 0.013
GCTTGTTCGG | 1.04 ± 0.011
GCTTTAGTAT | 0.9963 ± 0.0058
GCTTTATGGG | 0.98 ± 0.027
GCTTTCATAT | 0.9996 ± 0.0099
GCTTTCGATC | 1.05 ± 0.033
GCTTTGATGT | 0.9839 ± 0.0032
GCTTTGGATG | 0.968 ± 0.05
GCTTTGGGGC | 1.01 ± 0.02
GCTTTGTATA | 1 ± 0.021
GCTTTGTGAT | 1.01 ± 0.066
GCTTTTAGCG | 0.989 ± 0.055
GCTTTTGAAG | 0.993 ± 0.019
GCTTTTGGCA | 1.019 ± 0.0057
GCTTTTGTAT | 0.991 ± 0.025
GGAAAAATTG | 1.02 ± 0.021
GGAAAAGGGT | 0.998 ± 0.04
GGAAAATACA | 0.985 ± 0.025
GGAAACAGTT | 1 ± 0.032
GGAAACTTAG | 1.019 ± 0.0089
